The chains are these.
T1: T4 primosome (gp41 helicase-gp61 primase) (Tequatrovirus T4, UniProt P04530)
T1 construct: gene 41; full-length proteins, intein fusions self-cleaved, E. coli BL21(DE3); 6:1 helicase:primase on ssDNA; with DNA primase
T1 sequence (P04530 1-475): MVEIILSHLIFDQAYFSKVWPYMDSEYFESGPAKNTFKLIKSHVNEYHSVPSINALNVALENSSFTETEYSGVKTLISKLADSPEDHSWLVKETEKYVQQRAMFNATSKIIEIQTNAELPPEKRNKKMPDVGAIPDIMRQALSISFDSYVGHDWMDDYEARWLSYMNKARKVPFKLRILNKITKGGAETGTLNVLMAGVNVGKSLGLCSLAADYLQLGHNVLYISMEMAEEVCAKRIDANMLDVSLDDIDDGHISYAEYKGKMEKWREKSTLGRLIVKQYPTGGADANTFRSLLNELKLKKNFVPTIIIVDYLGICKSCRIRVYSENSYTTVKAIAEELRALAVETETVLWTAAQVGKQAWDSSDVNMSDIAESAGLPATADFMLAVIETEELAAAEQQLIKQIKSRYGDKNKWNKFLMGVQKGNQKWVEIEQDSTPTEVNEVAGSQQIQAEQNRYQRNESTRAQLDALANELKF
T1 sequence (P04520 1-342 partner): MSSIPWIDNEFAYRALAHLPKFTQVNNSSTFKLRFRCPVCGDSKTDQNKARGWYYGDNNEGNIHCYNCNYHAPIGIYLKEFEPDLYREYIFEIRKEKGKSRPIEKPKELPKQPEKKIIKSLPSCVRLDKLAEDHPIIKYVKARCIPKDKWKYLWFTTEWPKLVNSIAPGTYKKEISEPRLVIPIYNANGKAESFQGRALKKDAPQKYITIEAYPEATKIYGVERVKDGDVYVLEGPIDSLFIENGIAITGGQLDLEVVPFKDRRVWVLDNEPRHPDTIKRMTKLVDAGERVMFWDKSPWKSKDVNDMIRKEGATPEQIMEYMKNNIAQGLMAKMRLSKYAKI

T2: gp41 helicase (Tequatrovirus T4, UniProt P04530)
T2 construct: gene 41; full-length, intein fusion self-cleaved, E. coli BL21(DE3); homohexamer, without or with ssDNA
T2 sequence (P04530 1-475): T1 sequence (P04530 1-475)

T3: gp41(E227Q) helicase;gp61 primase (Escherichia phage T4 (T4 …, UniProt P04530;P04520 1-475;1-342, E227Q|))
T3 sequence 1: T1 sequence (P04530 1-475) with E227Q
T3 sequence 2: T1 sequence (P04520 1-342 partner)

T4: gp41 helicase (Escherichia phage T4 (T4 bacteriophage), UniProt P04530 1-475)
T4 sequence: T1 sequence (P04530 1-475)

T5: gp41 helicase;gp61 primase (Escherichia phage T4 (T4 …, UniProt P04530;P04520 1-475;1-342, |))
T5 sequence 1: T1 sequence (P04530 1-475)
T5 sequence 2: T1 sequence (P04520 1-342 partner)

B1: ssDNA template/pentaribonucleotide primer (DNA:RNA)
DNA: GAATGAGGAGTAGTAGTGAATGTAGTGAGGTAATATCGGCTGGTCTGGTCTGTGCCAAGTTGCTGCAAAA
?: GCCGA
modifications: RNA primer 5'-triphosphate
B2: T4 bacteriophage gp61 primase (enzyme, UniProt P04520 1-342, looked up)
chain: T1 sequence (P04520 1-342 partner)
notes: gp61 primase of T4 bacteriophage, wild type; N-terminal ZBD and C-terminal RPD joined by a linker loop (Lys97 to Lys115); the models hold a resolved full-length primase; also called WT gp61 primase; T4 primase
B3: T4 bacteriophage gp41 helicase (enzyme, UniProt P04530 1-475, looked up)
chain: T1 sequence (P04530 1-475)
notes: gp41 helicase of T4 bacteriophage, wild type; NTD (globular subdomain and helical hairpin), linking helix and RecA-like CTD; Hexamer assembled with ATPγS; also called WT gp41 helicase; T4 helicase
B4: T4 bacteriophage gp41 helicase E227Q (enzyme, UniProt P04530 1-475, looked up)
chain: T1 sequence (P04530 1-475) with E227Q
notes: gp41 helicase of T4 bacteriophage with E227Q in the walker-B motif (no ATP hydrolysis); PDB 8DTP is the wild-type parent; also called gp41(E227Q)

Data set [1] concerns the target T1, T4 primosome (gp41 helicase-gp61 primase). Kind of data set: cryo-EM structure. The format is binding. As to conditions: WT primosome with ssDNA, closed-ring gp41; 5 mM ATPγS, 10 mM MgCl2, pH 7.8; sites on gp41.
The target of data set [2] is T2, gp41 helicase. Kind of data set: cryo-EM structure. Type of data set: binding. The following applies: five of six nucleotide sites at CTD-CTD interfaces occupied; 5 mM ATPγS, 10 mM MgCl2, pH 7.8; open spiral without ssDNA (8DUO) or with ssDNA (8DUE), closed ring with ssDNA (8DTP).
Data set [3] has as its target T3, gp41(E227Q) helicase;gp61 primase. Kind of data set: cryo-EM; mutant primosome, post primer synthesis; composite map, RNA/DNA hybrid seen; Cryo-EM with ATPgS (stated for gp41 and WT primosome); assembly buffer and temperature not in the material; cryo-EM proteins purified in HEPES pH 7.8 buffers. The following applies: protein: recombinant;recombinant; tags: none (intein tag self-cleaved);none (intein tag self-cleaved); chain copies: 6;1; 70-nt DNA (strand 1) annealed to 5-nt RNA (strand 2) at internal TCGGC; single-stranded DNA on both sides.

For data set [4], the target named is T4, gp41 helicase. Kind of data set: cryo-EM; ATPgS; open spiral, 10 nt ssDNA held; RNA primer not resolved; Cryo-EM with ATPgS (stated for gp41 and WT primosome); assembly buffer and temperature not in the material; cryo-EM proteins purified in HEPES pH 7.8 buffers. The following applies: protein: recombinant; tags: none (intein tag self-cleaved); chain copies: 6; 70-nt DNA (strand 1) annealed to 5-nt RNA (strand 2) at internal TCGGC; single-stranded DNA on both sides.

Data set [5] concerns the target T5, gp41 helicase;gp61 primase. Put plainly: cryo-EM; ATPgS; WT primosome pose 1; ssDNA seen, no RNA primer density; Cryo-EM with ATPgS (stated for gp41 and WT primosome); assembly buffer and temperature not in the material; cryo-EM proteins purified in HEPES pH 7.8 buffers. As to conditions: protein: recombinant;recombinant; tags: none (intein tag self-cleaved);none (intein tag self-cleaved); chain copies: 6;1; 70-nt DNA (strand 1) annealed to 5-nt RNA (strand 2) at internal TCGGC; single-stranded DNA on both sides.

Data set [6] concerns the target B3. Put plainly: cryo-EM structure; step 3: 6 uM gp41 helicase, 5 mM ATPγS, 12 uM ssDNA/RNA primer substrate and 3 uM gp61 primase; 20 mM HEPES pH 7.8, 100 mM NaCl, 10 mM MgCl2, 2 mM DTT; 30 min at room temperature. The following applies: both partners purified.
In data set [7] the target is B4. Kind of data set: cryo-EM structure; primosome assembled from gp41 E227Q helicase, WT gp61 primase and the ssDNA/RNA primer substrate; helicase and primase regions refined separately. The following applies: both partners purified.
Data set [8] deals with the molecule itself. Kind of data set: cryo-EM structure; step 1: 6 uM gp41 helicase with 5 mM ATPγS, no DNA; 20 mM HEPES pH 7.8, 100 mM NaCl, 10 mM MgCl2, 2 mM DTT; 30 min at room temperature.
Data set [9] concerns the molecule itself. Kind of data set: cryo-EM structure; primosome assembled from gp41 E227Q helicase, WT gp61 primase and the ssDNA/RNA primer substrate; helicase and primase regions refined separately.

The values below come from publication PMC10359460, “Structural basis of the T4 bacteriophage primosome assembly and primer synthesis” (Nature Communications, 2023).

Where a chain is given by its changes, count along the chain named. Numbers in names are those of the source.

One may read the stoichiometry N as a count of units in the complex or per binding partner.

As for `Nc1ncnc2c1ncn2[C@@H]1O[C@H](COP(=O)(O)OP(=O)(O)OP(O)(O)=S)[C@@H](O)[C@H]1O` [ATPγS], the cryo-EM structure entry in data set [1] is “observed in the T4 primosome in the presence of ssDNA and ATPγS”; on gp41 helicase [2], “five nucleotide binding pockets at the subunit interfaces occupied with ATPγS molecules”.

Take B1: the binding result (in [3]; with gp41 helicase [4]; in data set [5]) was “binds” throughout.

As for B2, the “stoichiometry N” value in [6] was 1 gp61 primase per gp41 helicase hexamer. Further, in data set [7], the binding result was “binds”.

As to B3, the “stoichiometry N” value in data set [8] worked out at 6 subunits.

With B4, the binding result in data set [9] was “binds”.
